Test results reported in patent US20260242735A1 (UNIVERSIT T BASEL, published 2026).

Assays:
human CD33 N20T [1] = target: human CD33 N20T (human, UniProt P20138 18-364); experiment: flow cytometry, HEK293-T, IgG;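 note: CD33 point mutants transiently expressed, antibody binding measured by fluorescence in duplicate, background subtracted and scaled to binding on wild-type CD33 as 100%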
Target sequence in this assay (P20138 18-364 N20T limits assumed): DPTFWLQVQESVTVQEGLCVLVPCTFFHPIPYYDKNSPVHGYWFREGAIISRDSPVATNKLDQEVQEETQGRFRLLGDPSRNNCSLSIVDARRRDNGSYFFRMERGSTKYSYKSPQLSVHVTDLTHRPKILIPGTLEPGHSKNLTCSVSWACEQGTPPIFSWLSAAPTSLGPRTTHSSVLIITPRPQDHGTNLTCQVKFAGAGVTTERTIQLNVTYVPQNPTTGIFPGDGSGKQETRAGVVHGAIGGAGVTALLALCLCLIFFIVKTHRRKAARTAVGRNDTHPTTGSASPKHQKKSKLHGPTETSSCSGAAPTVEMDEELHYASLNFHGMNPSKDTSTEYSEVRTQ
Procedure: (§1) An alanine scan on human CD33 was performed to the determine the residues on CD33 that are involved in binding to the antibodies investigated. […] Briefly, a mutation library of CD33 was created by high-throughput, site-directed mutagenesis. Each residue was individually mutated to alanine, with alanine codons mutated to serine. The mutant library was arrayed in 384-well microplates and transiently transfected into HEK293-T. Following transfection, cells were incubated with the indicated antibodies (IgG or Fab) at concentrations pre-determined using an independent immunofluorescence titration curve on wild type CD33. […] Binding of each antibody to each mutant clone was determined in duplicates. For each point, background fluorescence was subtracted from the raw data, which were then normalized to antibody reactivity with wild type CD33.
(§2) Antibodies were screened for binding to the human CD33 variants in IgG format. […] For each mutation, background fluorescence was subtracted from the raw data, which were then normalized to antibody reactivity with wild-type CD33.

human CD33 N20Y = human CD33 N20Y (human, UniProt P20138 18-364); experiment: flow cytometry, HEK293-T, IgG;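 note: CD33 point mutants transiently expressed, antibody binding measured by fluorescence in duplicate, background subtracted and scaled to binding on wild-type CD33 as 100%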
Procedure: as §1, §2

human CD33 N20Q = human CD33 N20Q (human, UniProt P20138 18-364); experiment: flow cytometry, HEK293-T, IgG;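 note: CD33 point mutants transiently expressed, antibody binding measured by fluorescence in duplicate, background subtracted and scaled to binding on wild-type CD33 as 100%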
Procedure: as §1, §2

human CD33 W22P = human CD33 W22P (human, UniProt P20138 18-364); experiment: flow cytometry, HEK293-T, IgG;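 note: CD33 point mutants transiently expressed, antibody binding measured by fluorescence in duplicate, background subtracted and scaled to binding on wild-type CD33 as 100%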
Procedure: as §1, §2

human CD33 D18N = human CD33 D18N (human, UniProt P20138 19-364); experiment: flow cytometry, HEK293-T, IgG
Procedure: as §1, §2

human CD33 N20W = human CD33 N20W (human, UniProt P20138 18-364); experiment: flow cytometry, HEK293-T, IgG
Procedure: as §1, §2

human CD33 V25L [2] = target: human CD33 V25L (human, UniProt P20138 18-364); experiment: flow cytometry, HEK293-T, IgG
Target sequence in this assay (P20138 18-364 V25L limits assumed): as the sequence (P20138 18-364 N20T limits assumed) above, with T3N, V8L counted along it
Procedure: as §1, §2

human CD33 N20P = human CD33 N20P (human, UniProt P20138 18-364); experiment: flow cytometry, HEK293-T, IgG
Procedure: as §1, §2

human CD33 F21S = human CD33 F21S (human, UniProt P20138 18-364); experiment: flow cytometry, HEK293-T, IgG
Procedure: as §1, §2

human CD33 W22S = human CD33 W22S (human, UniProt P20138 18-364); experiment: flow cytometry, HEK293-T, IgG
Procedure: as §1, §2

human CD33 N20V [3] = target: human CD33 N20V (human, UniProt P20138 18-364); experiment: flow cytometry, HEK293-T, IgG
Target sequence in this assay (P20138 18-364 N20V limits assumed): as the sequence (P20138 18-364 N20T limits assumed) above, with T3V counted along it
Procedure: as §1, §2

human CD33 V25M = human CD33 V25M (human, UniProt P20138 18-364); experiment: flow cytometry, HEK293-T, IgG
Procedure: as §1, §2

human CD33 Q24R [4] = target: human CD33 Q24R (human, UniProt P20138 18-364); experiment: flow cytometry, HEK293-T, IgG
Target sequence in this assay (P20138 18-364 Q24R limits assumed): as the sequence (P20138 18-364 N20T limits assumed) above, with T3N, Q7R counted along it
Procedure: as §1, §2

human CD33 Q24I = human CD33 Q24I (human, UniProt P20138 18-364); experiment: flow cytometry, HEK293-T, IgG
Procedure: as §1, §2

human CD33 P19K = human CD33 P19K (human, UniProt P20138 18-364); experiment: flow cytometry, HEK293-T, IgG
Procedure: as §1, §2

human CD33 V25I = human CD33 V25I (human, UniProt P20138 18-364); experiment: flow cytometry, HEK293-T, IgG
Procedure: as §1, §2

human CD33 Q24N = human CD33 Q24N (human, UniProt P20138 18-364); experiment: flow cytometry, HEK293-T, IgG
Procedure: as §1, §2

human CD33 Q24L = human CD33 Q24L (human, UniProt P20138 18-364); experiment: flow cytometry, HEK293-T, IgG
Procedure: as §1, §2

human CD33 W22R = human CD33 W22R (human, UniProt P20138 18-364); experiment: flow cytometry, mutant on cells, IgG
human CD33 W22T = human CD33 W22T (human, UniProt P20138 18-364); experiment: flow cytometry, mutant on cells, IgG
human CD33 L23M = human CD33 L23M (human, UniProt P20138 18-364); experiment: flow cytometry, mutant on cells, IgG
human CD33 F21V = human CD33 F21V (human, UniProt P20138 18-364); experiment: flow cytometry, mutant on cells, IgG
human CD33 V25S = human CD33 V25S (human, UniProt P20138 18-364); experiment: flow cytometry, mutant on cells, IgG
human CD33 Q24R [5] = target: human CD33 Q24R (human, UniProt P20138 18-364); experiment: flow cytometry, mutant on cells, IgG
Target sequence in this assay (P20138 18-364 Q24R limits assumed): as the sequence (P20138 18-364 N20T limits assumed) above, with T3N, Q7R counted along it

human CD33 N20V [6] = target: human CD33 N20V (human, UniProt P20138 18-364); experiment: flow cytometry, mutant on cells, IgG
Target sequence in this assay (P20138 18-364 N20V limits assumed): as the sequence (P20138 18-364 N20T limits assumed) above, with T3V counted along it

human CD33 W22N = human CD33 W22N (human, UniProt P20138 18-364); experiment: flow cytometry, mutant on cells, IgG
human CD33 V25L [7] = target: human CD33 V25L (human, UniProt P20138 18-364); experiment: flow cytometry, mutant on cells, IgG
Target sequence in this assay (P20138 18-364 V25L limits assumed): as the sequence (P20138 18-364 N20T limits assumed) above, with T3N, V8L counted along it

human CD33 P19W = human CD33 P19W (human, UniProt P20138 18-364); experiment: flow cytometry, mutant on cells, IgG
human CD33 N20K = human CD33 N20K (human, UniProt P20138 18-364); experiment: flow cytometry, mutant on cells, IgG
human CD33 F44E = human CD33 F44E (human, UniProt P20138 18-364); experiment: flow cytometry, mutant on cells, IgG
human CD33 F44D = human CD33 F44D (human, UniProt P20138 18-364); experiment: flow cytometry, mutant on cells, IgG
human CD33 Q24V = human CD33 Q24V (human, UniProt P20138 18-364); experiment: flow cytometry, mutant on cells, IgG
human CD33 Q24H = human CD33 Q24H (human, UniProt P20138 18-364); experiment: flow cytometry, mutant on cells, IgG
human CD33 N20T [8] = target: human CD33 N20T (human, UniProt P20138 18-364); experiment: flow cytometry, mutant on cells, IgG
Target sequence in this assay (P20138 18-364 N20T limits assumed): as the sequence (P20138 18-364 N20T limits assumed) above

human CD33 F44Q = human CD33 F44Q (human, UniProt P20138 18-364); experiment: flow cytometry, mutant on cells, IgG
human CD33 F44V = human CD33 F44V (human, UniProt P20138 18-364); experiment: flow cytometry, mutant on cells, IgG
human CD33 F44L = human CD33 F44L (human, UniProt P20138 18-364); experiment: flow cytometry, mutant on cells, IgG

Sequence of human CD33 F21V (P20138 18-364 F21V limits assumed): as the sequence (P20138 18-364 N20T limits assumed) above, with T3N, F4V counted along it
Sequence of human CD33 P19W (P20138 18-364 P19W limits assumed): as the sequence (P20138 18-364 N20T limits assumed) above, with P2W, T3N counted along it
Sequence of human CD33 F44Q (P20138 18-364 F44Q limits assumed): as the sequence (P20138 18-364 N20T limits assumed) above, with T3N, F27Q counted along it
Sequence of human CD33 W22T (P20138 18-364 W22T limits assumed): as the sequence (P20138 18-364 N20T limits assumed) above, with T3N, W5T counted along it
Sequence of human CD33 L23M (P20138 18-364 L23M limits assumed): as the sequence (P20138 18-364 N20T limits assumed) above, with T3N, L6M counted along it
Sequence of human CD33 Q24V (P20138 18-364 Q24V limits assumed): as the sequence (P20138 18-364 N20T limits assumed) above, with T3N, Q7V counted along it
Sequence of human CD33 V25S (P20138 18-364 V25S limits assumed): as the sequence (P20138 18-364 N20T limits assumed) above, with T3N, V8S counted along it
Sequence of human CD33 F44V (P20138 18-364 F44V limits assumed): as the sequence (P20138 18-364 N20T limits assumed) above, with T3N, F27V counted along it
Sequence of human CD33 F44D (P20138 18-364 F44D limits assumed): as the sequence (P20138 18-364 N20T limits assumed) above, with T3N, F27D counted along it

Row | Mean % WT Binding (human CD33 W22R) [% WT binding] | Mean % WT Binding (human CD33 W22T) [% WT binding] | Mean % WT Binding (human CD33 L23M) [% WT binding] | Mean % WT Binding (human CD33 F21V) [% WT binding] | Mean % WT Binding (human CD33 V25S) [% WT binding] | Mean % WT Binding (human CD33 Q24R [5]) [% WT binding] | Mean % WT Binding (human CD33 N20V [6]) [% WT binding] | Mean % WT Binding (human CD33 W22N) [% WT binding] | Mean % WT Binding (human CD33 V25L [7]) [% WT binding] | Mean % WT Binding (human CD33 P19W) [% WT binding] | Mean % WT Binding (human CD33 N20K) [% WT binding] | Mean % WT Binding (human CD33 F44E) [% WT binding] | Mean % WT Binding (human CD33 F44D) [% WT binding] | Mean % WT Binding (human CD33 Q24V) [% WT binding] | Mean % WT Binding (human CD33 Q24H) [% WT binding] | Mean % WT Binding (human CD33 N20T [8]) [% WT binding] | Mean % WT Binding (human CD33 F44Q) [% WT binding] | Mean % WT Binding (human CD33 F44V) [% WT binding] | Mean % WT Binding (human CD33 F44L) [% WT binding] | further results | Binder
1 |  |  |  |  |  |  |  |  |  |  |  |  |  |  |  |  |  |  |  | Mean % WT Binding (human CD33 N20T [1]): 107 % WT binding; Mean % WT Binding (human CD33 N20Y): 57.7 % WT binding; Mean % WT Binding (human CD33 N20Q): 93.2 % WT binding; Mean % WT Binding (human CD33 W22P): 110 % WT binding; Mean % WT Binding (human CD33 D18N): 58.7 % WT binding; Mean % WT Binding (human CD33 N20W): 71.7 % WT binding; Mean % WT Binding (human CD33 V25L [2]): 94.9 % WT binding; Mean % WT Binding (human CD33 N20P): 96.8 % WT binding; Mean % WT Binding (human CD33 F21S): 112 % WT binding; Mean % WT Binding (human CD33 W22S): 89.7 % WT binding; Mean % WT Binding (human CD33 N20V [3]): 108 % WT binding; Mean % WT Binding (human CD33 V25M): 87.6 % WT binding; Mean % WT Binding (human CD33 Q24R [4]): 102 % WT binding; Mean % WT Binding (human CD33 Q24I): 94.6 % WT binding; Mean % WT Binding (human CD33 P19K): 86.2 % WT binding; Mean % WT Binding (human CD33 V25I): 98.9 % WT binding; Mean % WT Binding (human CD33 Q24N): 110 % WT binding; Mean % WT Binding (human CD33 Q24L): 101 % WT binding | Refmab #5 (antibody, human IgG1, V domains shown, tested in IgG format) VH: QVQLVQSGAEVKKPGASVKVSCKASGYTFTNYDINWVRQAPGQGLEWIGWIYPGDGSTKYNEKFKAKATLTADTSTSTAYMELRSLRSDDTAVYYCASGYEDAMDYWGQGTTVTVSS VL: DIQMTQSPSSLSASVGDRVTINCKASQDINSYLSWFQQKPGKAPKTLIYRANRLVDGVPSRFSGSGSGQDYTLTISSLQPEDFATYYCLQYDEFPLTFGGGTKVEIK
2 | 0.9 | 1.3 | 98.1 | 0.7 | 104 | 74.6 | 0.5 | 3.5 | 97.8 | 71.2 | 0.8 | 33.3 | 1.2 | 24.5 | 7.1 | 2.2 | 105 | 101 | 80 |  | Refmab #3 (antibody, human IgG1, V domains shown, Tested in IgG format; human IgG1 Fc silent (PG-LALA)) VH: QVQLVQSGAEVKKPGSSVKVSCKASGYTFTDYNMHWVRQAPGQGLEWIGYIYPYNGGTGYNQKFKSKATITADESTNTAYMELSSLRSEDTAVYYCARGRPAMDYWGQGTLVTVSS VL: DIQMTQSPSSLSASVGDRVTITCRASESVDNYGISFMNWFQQKPGKAPKLLIYAASNQGSGVPSRFSGSGSGTDFTLTISSLQPDDFATYYCQQSKEVPWTFGQGTKVEIK
3 | 7.4 | 6.2 | 94.4 | 1.5 | 106 | 95.1 | 4.2 | 76.5 | 99.2 | 73.8 | 0.4 | 92.7 | 98.9 | 92.6 | 95.3 | 6.9 | 106 | 99.5 | 112 |  | Refmab #1 (antibody, human IgG1, V domains shown, Tested in IgG format; human IgG1 (Absolute Antibody hP67.6, Cat. No. Ab00283-10.0); also called hP67.6) VH: EVQLVQSGAEVKKPGSSVKVSCKASGYTITDSNIHWVRQAPGQSLEWIGYIYPYNGGTDYNQKFKNRATLTVDNPTNTAYMELSSLRSEDTAFYYCVNGNPWLAYWGQGTLVTVSS VL: DIQLTQSPSTLSASVGDRVTITCRASESLDNYGIRFLTWFQQKPGKAPKLLMYAASNQGSGVPSRFSGSGSGTEFTLTISSLQPDDFATYYCQQTKEVPWSFGQGTKVEVK
